According to US20180072782A1 (UNIVERSITY OF GEORGIA RESEARCH FOUNDATION, published 2018):
Bridges are numbered along the chain shown (N, C = ends). [ ]: non-standard residue; d: D form. The star is where a group is joined. Biotin = O=C1N[C@H]2[C@H](CS[C@H]2CCCCC(=O)*)N1; S5 = C=CCCC[C@](C)(N)C(=O)O; AEEEA = NCCOCCOCCOCC(=O)O

Biological target: T1, Cytoplasmic FMR1-interacting protein 1 (CYFIP1), endogenous in MDA-MB-231 cells (human, UniProt Q7L576 1-1253)
T1 construct: Endogenous protein of a human breast cancer cell line, detected by western blot; also called SRA1
T1 sequence (Q7L576 whole entry): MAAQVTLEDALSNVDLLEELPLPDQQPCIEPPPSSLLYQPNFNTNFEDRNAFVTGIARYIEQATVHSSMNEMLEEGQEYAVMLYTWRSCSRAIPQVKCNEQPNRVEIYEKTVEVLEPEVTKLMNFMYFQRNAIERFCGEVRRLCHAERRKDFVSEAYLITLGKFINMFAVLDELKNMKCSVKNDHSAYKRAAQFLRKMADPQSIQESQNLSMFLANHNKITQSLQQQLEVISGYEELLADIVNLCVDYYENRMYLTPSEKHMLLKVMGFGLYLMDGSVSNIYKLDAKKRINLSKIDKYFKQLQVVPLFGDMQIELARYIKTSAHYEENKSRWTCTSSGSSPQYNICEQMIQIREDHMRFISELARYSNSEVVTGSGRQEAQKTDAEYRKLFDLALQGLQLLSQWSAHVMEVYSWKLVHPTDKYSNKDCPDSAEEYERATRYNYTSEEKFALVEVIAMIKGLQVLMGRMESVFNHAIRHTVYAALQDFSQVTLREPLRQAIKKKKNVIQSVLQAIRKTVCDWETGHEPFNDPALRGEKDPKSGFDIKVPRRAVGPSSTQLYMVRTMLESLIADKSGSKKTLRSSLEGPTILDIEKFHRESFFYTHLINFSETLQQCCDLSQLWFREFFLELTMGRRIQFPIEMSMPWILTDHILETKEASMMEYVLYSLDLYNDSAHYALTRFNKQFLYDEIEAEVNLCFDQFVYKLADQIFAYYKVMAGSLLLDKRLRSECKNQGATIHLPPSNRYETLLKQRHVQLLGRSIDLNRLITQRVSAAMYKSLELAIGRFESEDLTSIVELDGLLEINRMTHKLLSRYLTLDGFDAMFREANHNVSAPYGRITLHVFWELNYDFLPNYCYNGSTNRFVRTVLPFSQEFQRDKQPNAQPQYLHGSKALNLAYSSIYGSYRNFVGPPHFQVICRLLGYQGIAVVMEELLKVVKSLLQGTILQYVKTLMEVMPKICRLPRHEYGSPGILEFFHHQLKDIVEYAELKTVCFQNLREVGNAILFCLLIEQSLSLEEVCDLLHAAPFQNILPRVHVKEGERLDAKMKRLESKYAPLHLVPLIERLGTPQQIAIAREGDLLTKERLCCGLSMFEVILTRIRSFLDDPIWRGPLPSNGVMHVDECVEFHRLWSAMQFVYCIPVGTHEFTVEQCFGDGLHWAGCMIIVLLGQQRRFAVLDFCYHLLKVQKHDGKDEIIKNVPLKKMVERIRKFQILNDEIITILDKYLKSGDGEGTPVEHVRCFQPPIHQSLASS
Assay: avidin-biotin pull-down with biotinylated peptide from treated MDA-MB-231 cells, western blot
Experimental: Specially, to determine the physical interaction with individual peptides, MDA-MB-231 cells were pretreated with 10 μM biotin-labeled peptides for 24 hours and lysates were incubated with immobilized avidin resin overnight at 4° C. The pull down samples were subjected to SDS-PAGE followed by Western blot analysis.

binding result | Binder
no binding (tested: 10 µM) | {Biotin-AEEEA}-TRAILL[S5]ITK[S5]QNELK-NH2 (staple 7-11; not fully specified, Negative control; also called SCR peptides) [SCR2, scrambled stapled control peptide for WAHM2]
no binding (tested: 10 µM) | {Biotin-AEEEA}-SRA[S5]LLI[S5]TKIQNELK-NH2 (staple 4-8; not fully specified, Negative control; also called scrambled control (SCR) peptide 1; SCR peptides) [SCR1, scrambled stapled control peptide for WAHM1]
